Assay results published in paper PMC6272300, “Characterization of a (2R,3R)-2,3-Butanediol Dehydrogenase from Rhodococcus erythropolis WZ010” (Molecules, 2015).

Experiments:
Test in all cases: purified protein
purified protein [1] = substrate: C[C@@H](O)[C@@H](C)O; conditions: oxidation, 0.64 mM NAD+, 50 mM CAPS pH 10.0, 45 °C (b26 prints the pH and temperature of the two directions swapped)
purified protein [2] = substrate: CC(=O)C(C)=O; format: biochemical, Rhodococcus erythropolis; conditions: reduction; 0.4 mM NADH; 50 mM PIPES pH 6.5, 55 °C (swapped); pH 6.5; 55.0 °C
purified protein [3] = substrate: NC(=O)C1=CN([C@@H]2O[C@H](COP(=O)(O)OP(=O)(O)OC[C@H]3O[C@@H](n4cnc5c(N)ncnc54)[C@H](O)[C@@H]3O)[C@@H](O)[C@H]2O)C=CC1; format: biochemical, Rhodococcus erythropolis; conditions: reduction; 50 mM diacetyl; 50 mM PIPES pH 6.5, 55 °C; pH 6.5; 55.0 °C; varied: cofactor
purified protein [4] = substrate: NC(=O)c1ccc[n+]([C@@H]2O[C@H](COP(=O)(O)OP(=O)(O)OC[C@H]3O[C@@H](n4cnc5c(N)ncnc54)[C@H](O)[C@@H]3O)[C@@H](O)[C@H]2O)c1; format: biochemical, Rhodococcus erythropolis; conditions: oxidation; 50 mM (2R,3R)-2,3-butanediol; 50 mM CAPS pH 10.0, 45 °C; pH 10.0; 45.0 °C; varied: cofactor

B1: ReBDH (Rhodococcus erythropolis PR4) (protein)
chain: MKAARFHGQKDIRIEEIPEPELRPGTVKLKVAWCGICGTDLHEYLEGPIFISAPGHPHPLSHENAPVTMGHEFSGTVEEVGEGVTDVEVGENVVVEPYFVCNECAPCKAGNYHLCTKMGFIGLAGGGGGLSEKVVVDRRWIHKIGNIPLDEAALIEPLSVAHHAVVRSGAESGNVAIVGGAGPIGLLVAAVLKGLGVTTIVTELSEARKAKALSSGVADYVIDPTTEDVKARVLELSGGIGADIGFECAGVNAVLDTMLDTVRPAGVVVNVSIWGKPATIDMQKLVLKEIDLRGTIAYVRDHEAVIKMVQDGVVDLAPFITGRIQLEELISEGFTTLIEHNDTAVKILVRS
notes: full length, 351 residues, deduced 37180 Da; N-terminal His-tag (pEASY-E1) kept, E. coli BL21(DE3), Ni-NTA; native 45 kDa monomer
Km (purified protein [1]): 580 ± 50 µM | Vmax (purified protein [1]): 6.65 µmol/min/mg | kcat (purified protein [1]): 4.28 s⁻¹ | kcat/Km (purified protein [1]): 7380 M⁻¹ s⁻¹ | Km (purified protein [2]): 100 ± 10 µM | Vmax (purified protein [2]): 9.49 µmol/min/mg | kcat (purified protein [2]): 6.11 ± 0.14 s⁻¹ | kcat/Km (purified protein [2]): 61100 ± 7650 M⁻¹ s⁻¹ | Km (purified protein [3]): 80 ± 10 µM | Vmax (purified protein [3]): 8.92 µmol/min/mg | kcat (purified protein [3]): 5.73 ± 0.08 s⁻¹ | kcat/Km (purified protein [3]): 71600 ± 10100 M⁻¹ s⁻¹ | Km (purified protein [4]): 1040 ± 110 µM | Vmax (purified protein [4]): 16 µmol/min/mg | kcat (purified protein [4]): 10.3 ± 0.69 s⁻¹ | kcat/Km (purified protein [4]): 9880 ± 1780 M⁻¹ s⁻¹
